According to patent US20230052369A1 (Zymeworks, published 2023):
Substitutions are numbered along the chain they refer to.

B1: v28701 (antibody, human IgG1, kappa, L234A L235A, V domains shown)
VH: QVQLQESGPGLVKPSETLSLTCTVSGFSLISYGVHWVRQPPGKGLEWLGVIWSGGSTDYNPSLKSRVTISKDTSKNQFSLKLSSVTAADTAVYYCARNPLTATVMDYWGQGTLVTVSS
VL: DIQMTQSPSSLSASVGDRVTVTCRASQNVGTNVAWYQQKPGKAPKALIYSASYRDSGVPSRFSGSGSGTDFTLTISSVQPEDFATYYCQQYNSYPLTFGGGTKLEIKR
notes: also called humanized 5G8 H2L3
B2: v28703 (antibody, human IgG1, kappa, L234A L235A, V domains shown)
VH: B1 VH with L20I, F78V, L80F, V85L, V92I
VL: B1 VL with V21I, Y36F, A46S, V78L, L104V
notes: also called humanized 5G8 H3L1
B3: v28702 (antibody, human IgG1, kappa, L234A L235A, V domains shown)
VH: B1 VH
VL: B1 VL with F83L
notes: also called humanized 5G8 H2L4
B4: v28706 (antibody, human IgG1, kappa, L234A L235A, V domains shown)
VH: B1 VH with L20I, F78V, L80F, V85L, V92I
VL: B1 VL with F83L
notes: also called humanized 5G8 H3L4
B5: v28707 (antibody, human IgG1, kappa, L234A L235A, V domains shown)
VH: B1 VH with L20I, T73N, F78V, L80F, V85L, V92I
VL: B1 VL with V21I, Y36F, A46S, V78L, L104V
notes: also called humanized 5G8 H4L1
B6: v28711 (antibody, human IgG1, kappa, L234A L235A, V domains shown)
VH: B1 VH with L20I, T73N, F78V, L80F, V85L, V92I
VL: B1 VL with V21I, V78L, L104V
notes: also called humanized 5G8 H4L2
B7: v28704 (antibody, human IgG1, kappa, L234A L235A, V domains shown)
VH: B1 VH with L20I, F78V, L80F, V85L, V92I
VL: B1 VL with V21I, V78L, L104V
notes: also called humanized 5G8 H3L2
B8: v28712 (antibody, human IgG1, kappa, L234A L235A, V domains shown)
VH: B1 VH with L20I, T73N, F78V, L80F, V85L, V92I
VL: B1 VL
notes: also called humanized 5G8 H4L3
B9: v28713 (antibody, human IgG1, kappa, L234A L235A, V domains shown)
VH: B1 VH with L20I, T73N, F78V, L80F, V85L, V92I
VL: B1 VL with F83L
notes: also called humanized 5G8 H4L4
B10: v23802 (antibody, human IgG1, kappa)
heavy: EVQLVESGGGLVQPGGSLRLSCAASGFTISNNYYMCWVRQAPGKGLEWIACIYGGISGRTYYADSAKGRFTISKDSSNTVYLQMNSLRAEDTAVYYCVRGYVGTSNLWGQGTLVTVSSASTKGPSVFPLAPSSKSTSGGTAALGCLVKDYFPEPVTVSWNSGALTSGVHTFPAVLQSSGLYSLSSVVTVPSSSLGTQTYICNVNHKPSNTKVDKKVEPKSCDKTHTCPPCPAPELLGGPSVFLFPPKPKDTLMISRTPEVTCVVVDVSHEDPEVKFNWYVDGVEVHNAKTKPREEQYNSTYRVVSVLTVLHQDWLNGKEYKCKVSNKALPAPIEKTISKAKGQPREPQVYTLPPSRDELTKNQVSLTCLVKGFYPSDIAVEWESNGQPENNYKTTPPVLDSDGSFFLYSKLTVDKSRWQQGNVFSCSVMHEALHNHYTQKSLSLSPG
light: DIQMTQSPSSLSASVGDRVTITCQASQSIYSSLAWYQQKPGKAPKLLIYDASHLASGVPSRFSGSGSGTDFTLTISSVQPEDFATYYCQGGWYSSAATYVPNTFGGGTKVEVKRTVAAPSVFIFPPSDEQLKSGTASVVCLLNNFYPREAKVQWKVDNALQSGNSQESVTEQDSKDSTYSLSSTLTLSKADYEKHKVYACEVTHQGLSSPVTKSFNRGEC
notes: also called humanized 8K22 H4L2
B11: v23815 (antibody, human IgG1, kappa, V domains shown)
VH: EVQLVESGGGLVQPGGSLRLSCAASGFTISNNYYMCWVRQAPGKGLEWIACIYGGISGRTYYADSAKGRFTISKDNSKNTVYLQMNSLRAEDTAVYYCVRGYVGTSNLWGQGTLVTVSS
VL: DIQMTQSPSSLSASVGDRVTITCQASQSIYSSLAWYQQKPGKAPKLLIYDASHLASGVPSRFSGSRYGTDFTLTISSVQPEDAATYYCQGGWYSSAATYVPNTFGGGTKVEVKR
notes: also called humanized 8K22 H2L5
B12: v23798 (antibody, human IgG1, kappa)
heavy: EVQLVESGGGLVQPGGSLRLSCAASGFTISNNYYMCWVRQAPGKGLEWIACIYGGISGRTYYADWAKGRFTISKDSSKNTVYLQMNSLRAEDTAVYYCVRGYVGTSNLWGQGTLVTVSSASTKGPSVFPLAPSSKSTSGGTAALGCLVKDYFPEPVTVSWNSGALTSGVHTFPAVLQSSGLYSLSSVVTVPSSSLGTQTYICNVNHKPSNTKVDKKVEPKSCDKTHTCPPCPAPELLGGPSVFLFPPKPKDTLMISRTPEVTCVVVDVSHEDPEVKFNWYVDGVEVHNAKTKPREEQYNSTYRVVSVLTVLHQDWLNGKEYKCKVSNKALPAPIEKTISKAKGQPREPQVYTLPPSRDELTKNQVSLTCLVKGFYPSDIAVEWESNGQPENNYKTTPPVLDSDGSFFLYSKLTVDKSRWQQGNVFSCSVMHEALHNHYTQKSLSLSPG
light: B10 light with V112I
notes: also called humanized 8K22 H5L1
B13: v23816 (antibody, human IgG1, kappa, V domains shown)
VH: B11 VH with N76S
VL: B11 VL
notes: also called humanized 8K22 H3L5
B14: v23817 (antibody, human IgG1, kappa, V domains shown)
VH: EVQLVESGGGLVQPGGSLRLSCAASGFTISNNYYMCWVRQAPGKGLEWIACIYGGISGRTYYADSAKGRFTISKDSSNTVYLQMNSLRAEDTAVYYCVRGYVGTSNLWGQGTLVTVSS
VL: B11 VL
notes: also called humanized 8K22 H4L5
B15: v23818 (antibody, human IgG1, kappa, V domains shown)
VH: B11 VH with S65W, N76S
VL: B11 VL
notes: also called humanized 8K22 H5L5
B16: v23812 (antibody, human IgG1, kappa, V domains shown)
VH: B14 VH
VL: B11 VL with R66G, Y67S
notes: also called humanized 8K22 H4L4
B17: v23806 (antibody, human IgG1, kappa, V domains shown)
VH: B11 VH with N76S
VL: B11 VL with A83F
notes: also called humanized 8K22 H3L3
B18: v23807 (antibody, human IgG1, kappa, V domains shown)
VH: B14 VH
VL: B11 VL with A83F
notes: also called humanized 8K22 H4L3
B19: v23814 (antibody, human IgG1, kappa, V domains shown)
VH: B11 VH with I49V, A50S, A66V, V81L
VL: B11 VL
notes: also called humanized 8K22 H1L5
B20: v23811 (antibody, human IgG1, kappa, V domains shown)
VH: B11 VH with N76S
VL: B11 VL with R66G, Y67S
notes: also called humanized 8K22 H3L4
B21: v23805 (antibody, human IgG1, kappa, V domains shown)
VH: B11 VH
VL: B11 VL with A83F
notes: also called humanized 8K22 H2L3
B22: v23799 (antibody, human IgG1, kappa)
heavy: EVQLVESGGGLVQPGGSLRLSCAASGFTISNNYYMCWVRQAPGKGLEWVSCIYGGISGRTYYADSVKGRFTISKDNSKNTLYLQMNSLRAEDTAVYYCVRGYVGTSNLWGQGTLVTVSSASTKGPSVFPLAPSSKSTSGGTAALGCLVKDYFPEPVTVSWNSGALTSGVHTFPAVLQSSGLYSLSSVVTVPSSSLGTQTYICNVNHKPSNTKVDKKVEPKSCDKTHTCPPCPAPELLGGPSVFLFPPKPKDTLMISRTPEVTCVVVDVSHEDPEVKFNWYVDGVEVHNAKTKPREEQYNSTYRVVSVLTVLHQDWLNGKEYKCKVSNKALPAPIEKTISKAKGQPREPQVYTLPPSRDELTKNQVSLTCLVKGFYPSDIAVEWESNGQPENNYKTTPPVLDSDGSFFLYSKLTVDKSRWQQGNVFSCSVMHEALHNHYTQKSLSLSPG
light: B10 light
notes: also called humanized 8K22 H1L2
B23: v23809 (antibody, human IgG1, kappa, V domains shown)
VH: B11 VH with I49V, A50S, A66V, V81L
VL: B11 VL with R66G, Y67S
notes: also called humanized 8K22 H1L4
B24: v23808 (antibody, human IgG1, kappa, V domains shown)
VH: B11 VH with S65W, N76S
VL: B11 VL with A83F
notes: also called humanized 8K22 H5L3
B25: v23801 (antibody, human IgG1, kappa)
heavy: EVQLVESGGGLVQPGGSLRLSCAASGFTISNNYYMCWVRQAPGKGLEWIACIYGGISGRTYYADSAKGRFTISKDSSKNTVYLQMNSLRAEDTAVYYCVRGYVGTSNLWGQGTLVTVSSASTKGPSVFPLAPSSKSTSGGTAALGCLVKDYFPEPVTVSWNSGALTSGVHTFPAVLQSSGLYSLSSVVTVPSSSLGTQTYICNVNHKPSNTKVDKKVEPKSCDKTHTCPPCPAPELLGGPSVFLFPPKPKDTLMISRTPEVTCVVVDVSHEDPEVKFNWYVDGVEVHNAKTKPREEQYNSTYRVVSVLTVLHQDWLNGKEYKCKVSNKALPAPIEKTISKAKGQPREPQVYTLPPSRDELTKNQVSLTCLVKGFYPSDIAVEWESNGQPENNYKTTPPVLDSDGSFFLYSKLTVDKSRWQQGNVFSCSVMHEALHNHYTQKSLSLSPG
light: B10 light
notes: also called humanized 8K22 H3L2
B26: v23804 (antibody, human IgG1, kappa, V domains shown)
VH: B11 VH with I49V, A50S, A66V, V81L
VL: B11 VL with A83F
notes: also called humanized 8K22 H1L3
B27: v23796 (antibody, human IgG1, kappa)
heavy: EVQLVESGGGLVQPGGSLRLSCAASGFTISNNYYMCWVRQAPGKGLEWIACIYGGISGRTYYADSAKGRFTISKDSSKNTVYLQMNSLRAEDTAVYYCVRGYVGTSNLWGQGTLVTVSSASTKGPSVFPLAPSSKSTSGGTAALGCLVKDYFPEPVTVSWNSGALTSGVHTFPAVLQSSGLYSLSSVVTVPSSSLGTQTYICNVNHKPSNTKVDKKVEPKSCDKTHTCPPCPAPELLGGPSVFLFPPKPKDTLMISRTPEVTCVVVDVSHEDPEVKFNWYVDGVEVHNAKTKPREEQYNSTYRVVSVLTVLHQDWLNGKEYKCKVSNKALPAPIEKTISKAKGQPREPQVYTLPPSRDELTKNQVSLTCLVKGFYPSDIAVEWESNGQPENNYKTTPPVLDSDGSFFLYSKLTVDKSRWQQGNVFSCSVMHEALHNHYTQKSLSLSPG
light: B10 light with V112I
notes: also called humanized 8K22 H3L1
B28: v23797 (antibody, human IgG1, kappa)
heavy: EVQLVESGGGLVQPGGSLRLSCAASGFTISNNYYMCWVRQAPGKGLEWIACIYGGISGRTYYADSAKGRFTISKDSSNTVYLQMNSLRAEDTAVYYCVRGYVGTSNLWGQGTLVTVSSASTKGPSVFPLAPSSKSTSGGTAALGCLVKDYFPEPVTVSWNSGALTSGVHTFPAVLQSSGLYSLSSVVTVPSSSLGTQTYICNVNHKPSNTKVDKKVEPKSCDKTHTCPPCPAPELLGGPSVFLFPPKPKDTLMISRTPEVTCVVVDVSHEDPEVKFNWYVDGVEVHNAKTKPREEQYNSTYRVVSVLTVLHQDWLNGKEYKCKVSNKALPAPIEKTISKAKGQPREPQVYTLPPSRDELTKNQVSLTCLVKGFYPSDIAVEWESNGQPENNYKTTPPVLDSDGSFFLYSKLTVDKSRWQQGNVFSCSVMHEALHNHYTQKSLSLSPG
light: B10 light with V112I
notes: also called humanized 8K22 H4L1
B29: v23794 (antibody, human IgG1, kappa)
heavy: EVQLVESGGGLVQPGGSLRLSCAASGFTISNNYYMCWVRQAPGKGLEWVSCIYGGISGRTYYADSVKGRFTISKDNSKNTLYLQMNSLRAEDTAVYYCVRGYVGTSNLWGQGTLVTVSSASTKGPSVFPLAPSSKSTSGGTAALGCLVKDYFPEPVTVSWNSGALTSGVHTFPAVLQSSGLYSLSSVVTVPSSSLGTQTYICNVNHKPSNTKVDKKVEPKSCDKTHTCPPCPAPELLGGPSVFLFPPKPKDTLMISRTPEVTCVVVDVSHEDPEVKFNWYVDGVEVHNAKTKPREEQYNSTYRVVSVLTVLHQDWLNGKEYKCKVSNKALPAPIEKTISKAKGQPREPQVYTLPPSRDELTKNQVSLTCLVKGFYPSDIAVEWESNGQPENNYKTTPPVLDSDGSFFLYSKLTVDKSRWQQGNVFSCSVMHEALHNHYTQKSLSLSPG
light: B10 light with V112I
notes: also called humanized 8K22 H1L1
B30: v23820 (antibody, human IgG1, kappa, V domains shown)
VH: QEQLVESGGGLVQPEGSLTLTCKASGFTISNNYYMCWVRQAPGKGLEWIACIYGGISGRTYYASWAKGRFTISKTSSTTVTLQMTSLTAADTATYFCVRGYVGTSNLWGPGTLVTVSS
VL: DIVMTQTPASVEAAVGGTVTIKCQASQSIYSSLAWYQQKPGQSPKLLIYDASHLASGVPSRFSGSRYGTEFTLTISGVQCDDAATYYCQGGWYSSAATYVPNTFGGGTEVVVKR
notes: FSA format; rabbit variable domains, human IgG1/kappa constant domains; also called 8K22 rabbit-human parental chimera
B31: v23800 (antibody, human IgG1, kappa)
heavy: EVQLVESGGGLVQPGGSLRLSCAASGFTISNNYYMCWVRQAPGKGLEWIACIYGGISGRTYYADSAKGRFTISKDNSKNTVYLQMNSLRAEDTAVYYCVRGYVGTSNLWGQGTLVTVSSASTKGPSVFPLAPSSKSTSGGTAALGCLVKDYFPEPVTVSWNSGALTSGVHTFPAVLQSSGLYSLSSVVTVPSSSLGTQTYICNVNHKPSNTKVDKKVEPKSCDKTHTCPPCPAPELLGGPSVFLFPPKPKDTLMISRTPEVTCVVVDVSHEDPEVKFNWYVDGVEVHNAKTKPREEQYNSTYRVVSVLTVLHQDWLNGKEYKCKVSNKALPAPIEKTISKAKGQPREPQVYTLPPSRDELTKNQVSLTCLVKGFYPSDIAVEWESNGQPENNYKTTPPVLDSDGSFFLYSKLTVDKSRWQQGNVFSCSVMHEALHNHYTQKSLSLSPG
light: B10 light
notes: also called humanized 8K22 H2L2
B32: v23810 (antibody, human IgG1, kappa, V domains shown)
VH: B11 VH
VL: B11 VL with R66G, Y67S
notes: also called humanized 8K22 H2L4
B33: v23803 (antibody, human IgG1, kappa)
heavy: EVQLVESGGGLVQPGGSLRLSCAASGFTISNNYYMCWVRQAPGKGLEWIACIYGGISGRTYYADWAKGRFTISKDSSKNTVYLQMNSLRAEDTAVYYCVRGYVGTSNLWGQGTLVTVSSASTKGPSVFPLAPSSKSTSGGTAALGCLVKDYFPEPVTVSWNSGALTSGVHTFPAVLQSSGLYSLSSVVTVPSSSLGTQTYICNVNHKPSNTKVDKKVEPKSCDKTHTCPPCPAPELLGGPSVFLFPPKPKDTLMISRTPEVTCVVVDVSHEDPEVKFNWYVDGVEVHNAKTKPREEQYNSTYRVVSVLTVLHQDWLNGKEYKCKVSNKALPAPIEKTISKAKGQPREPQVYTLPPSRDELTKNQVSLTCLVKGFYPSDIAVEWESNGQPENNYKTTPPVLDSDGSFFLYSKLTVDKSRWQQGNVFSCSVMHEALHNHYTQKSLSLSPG
light: B10 light
notes: also called humanized 8K22 H5L2
B34: v23813 (antibody, human IgG1, kappa, V domains shown)
VH: B11 VH with S65W, N76S
VL: B11 VL with R66G, Y67S
notes: also called humanized 8K22 H5L4
B35: v23795 (antibody, human IgG1, kappa)
heavy: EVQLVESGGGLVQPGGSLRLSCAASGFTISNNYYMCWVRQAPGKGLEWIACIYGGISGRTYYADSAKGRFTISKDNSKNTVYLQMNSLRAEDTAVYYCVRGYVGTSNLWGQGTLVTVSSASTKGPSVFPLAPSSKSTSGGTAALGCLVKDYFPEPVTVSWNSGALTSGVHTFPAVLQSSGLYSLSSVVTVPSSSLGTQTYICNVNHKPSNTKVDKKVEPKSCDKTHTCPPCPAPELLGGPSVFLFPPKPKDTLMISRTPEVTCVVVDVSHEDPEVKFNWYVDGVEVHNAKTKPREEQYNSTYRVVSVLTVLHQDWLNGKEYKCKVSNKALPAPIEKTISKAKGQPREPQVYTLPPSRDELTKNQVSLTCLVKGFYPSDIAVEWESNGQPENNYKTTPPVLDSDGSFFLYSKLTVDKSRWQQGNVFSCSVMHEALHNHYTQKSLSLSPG
light: B10 light with V112I
notes: also called humanized 8K22 H2L1

What follows are binders tested against T1, human 4-1BB, full-length, expressed on cells (human, UniProt Q07011 24-255) (assay: flow cytometry, Jurkat-4-1BB).
T1 construct: also called CD137; TNFRSF9
T1 sequence (Q07011 24-255): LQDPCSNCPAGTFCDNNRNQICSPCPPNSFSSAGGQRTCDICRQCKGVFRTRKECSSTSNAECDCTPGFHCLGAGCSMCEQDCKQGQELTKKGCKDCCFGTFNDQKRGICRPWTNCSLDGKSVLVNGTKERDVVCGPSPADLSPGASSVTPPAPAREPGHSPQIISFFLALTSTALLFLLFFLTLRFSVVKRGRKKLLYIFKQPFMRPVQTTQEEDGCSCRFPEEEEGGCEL

EC50 [µM]	Binder
0.03	B1
0.00358	B2
0.0556	B3
0.00192	B4
0.0516	B5
0.139	B6
0.00346	B7
0.00356	B8
0.00234	B9

What follows are binders tested against T2, purified human monomeric 4-1BB (human, UniProt Q07011 24-186) (assay: SPR, mean n=3;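 further: antibodies captured on anti-human Fc chip, 4-1BB injected as five-point two-fold series from 40 nM by single-cycle kinetics at 25 °C, sensorgrams fitted to 1:1 Langmuir model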).
T2 construct: the assay used the 4-1BB part released by Factor Xa with the Fc removed; also called h4-1BB; human 4-1BB
T2 sequence (Q07011 other isoform, or with tags, fused parts or gaps limits assumed): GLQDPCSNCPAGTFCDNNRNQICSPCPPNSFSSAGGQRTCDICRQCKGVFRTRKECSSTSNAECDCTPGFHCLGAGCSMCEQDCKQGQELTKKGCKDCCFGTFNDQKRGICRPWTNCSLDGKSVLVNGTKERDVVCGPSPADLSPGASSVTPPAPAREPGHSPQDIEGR
Method: The anti-human Fc surface was prepared on a CMS Series S sensorchip by standard amine coupling methods as described by the manufacturer (GE Healthcare). Briefly, immediately after EDC/NHS activation, a 25 μg/mL solution of anti-human Fc in 10 mM NaOAc pH 4.5 was injected at a flow rate of 10 μL/min for 420 s until approximately 2000 resonance units (RUs) were immobilized on all four flow cells. The remaining active groups were quenched by a 420 s injection of 1M ethanolamine at 10 μL/min.
Antibodies for analysis were captured onto the anti-Fc surface by injecting 5 μg/mL solutions at a flow rate of 10 μL/min for 60 s. Using single-cycle kinetics, five concentrations of a two-fold dilution series of 4-1BB starting at 40 nM (for both supernatant and purified antibody runs) with a blank buffer control were sequentially injected at 40 μL/min for 180 s with a 600 s dissociation phase, resulting in a set of sensorgrams with a buffer blank reference. Experiments were performed at a constant temperature of 25° C. The anti-human Fc surfaces were regenerated to prepare for the next injection cycle by one pulse of 10 mM Glycine/HCl pH 1.5 for 120 s at 40 μL/min. Blank-subtracted sensorgrams were analyzed using Biacore™ T200 Evaluation Software v3.0. The blank-subtracted sensorgrams were then fit to the 1:1 Langmuir binding model.
Protein material post protein-A or SEC was assessed for binding to human 4-1BB.

Kd [µM]	Binder
0.61	B1
0.811	B2
0.62	B3
0.159	B4
0.732	B5
0.227	B6
0.179	B7
0.229	B8
0.184	B9

Each binder was assayed against T3, recombinant His-tagged human FRα (human, UniProt P15328 25-234) (assay: BLI, purified, average n=2).
T3 construct: Bought protein; also called hFRα; FRα-HIS
T3 sequence (P15328 25-234 limits assumed): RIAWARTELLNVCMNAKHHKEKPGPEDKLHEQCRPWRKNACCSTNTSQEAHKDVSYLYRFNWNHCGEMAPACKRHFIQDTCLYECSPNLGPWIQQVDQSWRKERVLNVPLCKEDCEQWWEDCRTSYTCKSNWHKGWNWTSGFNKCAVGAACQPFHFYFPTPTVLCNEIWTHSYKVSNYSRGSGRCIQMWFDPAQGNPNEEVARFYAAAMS
Method: (§1) The assay buffer used was KB buffer (kinetics buffer, composed of PBS pH 7.4, 0.1% BSA, 0.02% Tween 20, 0.05% sodium azide) supplemented with 0.06% Tween 20. The experiment was conducted at 25° C. with a shake speed of 1000 rpm.
(§2) Data analysis was performed using the Data analysis software 9.0′ (ForteBio). The reference-subtracted binding curves were globally fitted to the 1:1 interaction model to generate the binding kinetic parameters kₒₙ, koff, and the dissociation constant KD.

Kd [µM]	Binder
0.00853	B10
0.0165	B11
0.00685	B12
0.0106	B13
0.00641	B14
0.00613	B15
0.00874	B16
0.007	B17
0.00707	B18
0.00631	B19
0.00883	B20
0.0102	B21
0.0048	B22
0.00903	B23
0.0131	B24
0.00866	B25
0.00466	B26
0.0112	B27
0.0119	B28
0.00736	B29
0.00411	B30

These binders were tested against T3, recombinant His-tagged human FRα (assay: BLI, supernatant, n=1).
Method: as §1, §2

Kd [µM]	Binder
0.0365	B31
0.0179	B10
0.0167	B11
0.0119	B12
0.0104	B13
0.0095	B14
0.0174	B15
0.0195	B16
0.0115	B17
0.0109	B18
0.0101	B19
0.0225	B20
0.0162	B21
0.035	B32
0.0138	B22
0.0121	B23
0.0193	B24
0.0221	B25
0.00929	B26
0.0222	B27
0.0149	B28
0.0317	B33
0.0346	B34
0.0151	B29
0.0357	B35
0.00594	B30
